Assay results taken from patent publication US20100092484A1.

Key:
[1] = biological target: human CD44 (on cells) (human) (UniProt P16070); experiment: cell-based or functional assay
[2] = biological target: cynomolgus CD44 (on cells) (cynomolgus monkey); experiment: cell-based or functional assay
[3] = biological target: human CD44-IgG1 fusion protein (extracellular domain of human CD44 fused to human IgG1) (human); experiment: ELISA: antibody pre-mixed with human CD44-Ig (0.6 µg/ml); inhibition of CD44-Ig binding to plate-coated hyaluronic acid (HA)
[4] = biological target: lymphatic vessel endothelial hyaluronan receptor 1 protein (LYVE-1) (R&D, Cat. No. 2089-Ly) (UniProt Q9Y5Y7); experiment: ELISA on plate-coated LYVE-1 (50 ng), anti-goat IgG-HRP detection
Sequence of lymphatic vessel endothelial hyaluronan receptor 1 protein (LYVE-1) (R&D, Cat. No. 2089-Ly) (Q9Y5Y7 24-232 limits assumed): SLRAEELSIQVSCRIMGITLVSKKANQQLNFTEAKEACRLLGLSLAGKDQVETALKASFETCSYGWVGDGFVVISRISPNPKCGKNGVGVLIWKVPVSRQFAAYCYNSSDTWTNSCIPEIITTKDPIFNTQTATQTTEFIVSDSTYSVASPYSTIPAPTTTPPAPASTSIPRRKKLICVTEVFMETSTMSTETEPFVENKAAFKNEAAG

Sequence of human CD44 (on cells) (human) (P16070 other isoform, or with tags, fused parts or gaps limits assumed): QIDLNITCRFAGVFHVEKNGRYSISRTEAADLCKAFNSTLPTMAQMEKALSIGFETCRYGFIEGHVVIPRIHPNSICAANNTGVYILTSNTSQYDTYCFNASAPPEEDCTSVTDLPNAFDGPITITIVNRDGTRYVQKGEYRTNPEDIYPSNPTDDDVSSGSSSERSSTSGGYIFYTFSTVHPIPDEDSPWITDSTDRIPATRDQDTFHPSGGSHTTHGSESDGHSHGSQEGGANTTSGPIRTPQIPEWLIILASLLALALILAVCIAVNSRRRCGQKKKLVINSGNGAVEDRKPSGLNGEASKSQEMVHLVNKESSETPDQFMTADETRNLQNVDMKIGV
Sequence of human CD44-IgG1 fusion protein (extracellular domain of human CD44 fused to human IgG1) (human) (chain, as listed by the source limits assumed): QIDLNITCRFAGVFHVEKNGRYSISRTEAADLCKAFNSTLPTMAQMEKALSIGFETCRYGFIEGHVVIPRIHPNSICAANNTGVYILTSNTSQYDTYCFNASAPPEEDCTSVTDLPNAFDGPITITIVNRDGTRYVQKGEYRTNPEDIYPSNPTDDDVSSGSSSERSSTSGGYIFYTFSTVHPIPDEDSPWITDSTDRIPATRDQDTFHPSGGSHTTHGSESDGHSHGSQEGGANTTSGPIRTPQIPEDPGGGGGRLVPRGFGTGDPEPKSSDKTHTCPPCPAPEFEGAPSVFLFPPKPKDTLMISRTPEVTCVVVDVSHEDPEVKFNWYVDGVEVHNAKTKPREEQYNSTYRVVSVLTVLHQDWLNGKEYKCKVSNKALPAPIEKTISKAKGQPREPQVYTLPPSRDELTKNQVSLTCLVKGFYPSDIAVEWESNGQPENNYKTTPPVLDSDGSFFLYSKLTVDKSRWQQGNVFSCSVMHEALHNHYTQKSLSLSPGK
Sequence of cynomolgus CD44 (on cells) (cynomolgus monkey) (P16070 other isoform, or with tags, fused parts or gaps limits assumed): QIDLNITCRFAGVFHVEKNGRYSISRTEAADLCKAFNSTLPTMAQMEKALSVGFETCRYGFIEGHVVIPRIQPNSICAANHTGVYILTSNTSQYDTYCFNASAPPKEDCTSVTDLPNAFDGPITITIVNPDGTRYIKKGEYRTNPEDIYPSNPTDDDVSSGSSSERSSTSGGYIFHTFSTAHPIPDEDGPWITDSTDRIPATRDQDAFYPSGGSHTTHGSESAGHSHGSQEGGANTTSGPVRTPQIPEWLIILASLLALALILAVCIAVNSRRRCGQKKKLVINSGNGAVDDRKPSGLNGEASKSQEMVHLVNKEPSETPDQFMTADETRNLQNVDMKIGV

| IC50 of IL-1β release from purified human PBMC stimulated by HA [1] [µg/mL] | IC50 of reduction of CD44 surface expression on human peripheral CD3+ T cells (FACS) [1] [µg/mL] | IC50 of reduction of CD44 surface expression on cynomolgus peripheral CD3+ T cells (FACS) [2] [µg/mL] | IC50 [3] [µg/mL] | EC50 [4] [µg/mL] | Substance |
| --- | --- | --- | --- | --- | --- |
| 1.62 | 1.5 | 9.9 | 1.85 |  | anti-CD44 antibody IM7 (BD Bioscience, Cat. No. 553134) |
|  |  |  |  | 0.1 | anti-LYVE-1 antibody (R&D, Cat. No. AF 2089) |
| 1.46 |  |  | 0.32 |  | anti-CD44 antibody 515 (BD Bioscience, Cat. No. 550990) |
